Results published in article PMC5735849.

Experiments:
[1] = molecular target: T1, NP (ΔNPNTD) NTD (Zaire ebolavirus), P18272; conditions: modification not given
T1 chain: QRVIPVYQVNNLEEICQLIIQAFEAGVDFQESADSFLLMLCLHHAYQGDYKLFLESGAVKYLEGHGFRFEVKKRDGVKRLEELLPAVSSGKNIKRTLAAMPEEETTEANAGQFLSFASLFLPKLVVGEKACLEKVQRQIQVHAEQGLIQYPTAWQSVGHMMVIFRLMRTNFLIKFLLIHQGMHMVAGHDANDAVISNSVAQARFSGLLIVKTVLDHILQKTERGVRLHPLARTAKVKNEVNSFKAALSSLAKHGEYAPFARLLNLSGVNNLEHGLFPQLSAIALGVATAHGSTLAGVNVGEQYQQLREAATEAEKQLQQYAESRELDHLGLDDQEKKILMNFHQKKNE

[2] = molecular target: T1, NP (ΔNPNTD) NTD (Zaire ebolavirus), …; experiment: competition; conditions: modification not given

## MPGPELSGWISEQLMTGRIPVSDIFCDIE [VP35 NPBP 20-48, Q05127]
[1]
  Kd: 32 nM
[2]
  IC50: 262 nM
